Reference: patent US11484554B2, “Pancreatic cells for treating diabetes and methods of generating the same” (Seraxis, Inc., priority 2018, dated 2022)
“Also recorded” adds a separate entry of the source.

How the values were obtained:
Assay type in all cases: cell-based, human
[1] = test system: SR1423 cells; test: Glucagon added to the culture media during differentiation
Protocol: A second batch of SR1423 cells were seeded at 6.3×10^4 as described above and allowed to grow for 18-24 hours. […]

[2] = test system: SR1423 cells; test: Impact of KGF at earlier stages of differentiation, SR1423; conditions: KGF at earlier stages of differentiation (early endoderm)
Protocol: Differentiation: A first batch of SR1423 cells were seeded at 2.3×10^4 cells/cm^2 and allowed to grow for 18-24 hours. Cells were then washed with dPBS (—Mg^2+/—Ca^2+) and medium was changed following a 28 day schedule comprised of 6 media formulation as follows: Days 1, 2, 3: DMEM/F-12 medium (Life Technologies #10565018), 0.2% HSA, 1XB27 supplement (Life Technologies #A1486701), 100 ng/ml Activin A and 1 uM Wortmannin; Days 4, 5, 6, 7: DMEM (Life Technologies #10567014), 0.2% HSA, 1XB27 supplement, 4 uM Retinoic Acid, 50 ng/ml KGF, 50 ng/ml Noggin, 0.25 uM Cyclopamine KAAD; Days 8, 10: DMEM, 0.2% HSA, 1XB27 supplement, 50 ng/ml KGF, 50 ng/ml Noggin, 50 ng/ml EGF; Days 12, 14: DMEM, 0.2% HSA, 1XB27 supplement, 50 ng/ml Noggin, 50 ng/ml EGF, 1 uM γ-secretase inhibitor XXI, 10 uM Alk5i II, 1 uM T3; Days 16, 18: DMEM, 0.2% HSA, 1XB27 supplement, 10 uM Alk5i II, 1 uM T3, 100 nM Retinoic Acid; Days 20, 22, 24, 26, 28: CMRL (Life Technologies #11530037), 0.2% HSA, 1× B27 supplement, 1× glutamax (Life Technologies # 35050061), 10 uM Alk5i II, 1 uM T3, 10 mM Nicotinamide, 50 ng/ml IGF-I, 10 ng/ml BMP4. For differentiations with the addition of a second stage employing KGF, medium on days 4, 5, 6 with DMEM, 0.2% BSA, 1XB27 supplement, and 50 ng/ml KGF was inserted into the schedule shifting the remaining stages three days later. […]

[3] = test system: embryonic stem cell line BGO1V; test: Impact of KGF at earlier stages of differentiation, BGO1V

| Molecule | amount of cells that co-express insulin and glucagon [1] | production of pancreatic and insulin-producing cells [2] | production of pancreatic and insulin-producing cells [3] |
| --- | --- | --- | --- |
| glucagon: peptide hormone added to the sixth differentiation medium | reducing the amount of cells that co-express insulin and glucagon; also recorded: reduces the amount of cells that co-express insulin and glucagon |  |  |
| KGF: keratinocyte growth factor used as differentiation factor in culture medium (protein, UniProt P21781 32-194, looked up) Fibroblast growth factor 7: CNDMTPEQMATNVNCSSPERHTRSYDYMEGGDIRVRRLFCRTQWYLRIDKRGKVKGTQEMKNNYNIMEIRTVAVGIVAIKGVESEFYLAMNKEGKLYAKKECNEDCNFKELILENHYNTYASAKWTHNGGEMFVALNQKGIPVRGKKTKKEQKTAHFLPMAIT |  | marked reduction | matching results |
